These results are taken from patent publication US20240270846A1 (published 2024).

The target of the experiment is T1, CD3 epsilon homodimer protein (UniProt P07766 23-126).
T1 construct: also called CD3 (CD3 epsilon)
The experiment is described as follows: SPR Biacore T200, CD3 epsilon homodimer on chip, antibody as analyte.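 Note: homodimer amine-coupled to a CM4 sensor chip, run at 25 °C in HBS-EP+ buffer, with kinetic parameters derived in Biacore T200 Evaluation Software.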

T1 sequence (P07766 23-126): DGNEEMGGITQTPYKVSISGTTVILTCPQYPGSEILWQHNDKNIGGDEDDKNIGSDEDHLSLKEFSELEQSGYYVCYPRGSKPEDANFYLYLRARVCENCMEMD

B1: CE115HA000 H chain altered form E61Q (antibody, human IgG1, kappa, L234A L235A, N297A, name in Kabat numbering)
heavy: QVQLVESGGGVVQPGRSLRLSCAASGFTFSNAWMHWVRQAPGKGLEWVAQIKAKSNNYATYYAQSVKGRFTISRDDSKNSLYLQMNSLKTEDTAVYYCRYVHYGAYYGVDAWGQGTTVTVSSASTKGPSVFPLAPSSKSTSGGTAALGCLVKDYFPEPVTVSWNSGALTSGVHTFPAVLQSSGLYSLSSVVTVPSSSLGTQTYICNVNHKPSNTKVDKKVEPKSCDKTHTCPPCPAPEAAGGPSVFLFPPKPKDTLMISRTPEVTCVVVDVSHEDPEVKFNWYVDGVEVHNAKTKPREEQYASTYRVVSVLTVLHQDWLNGKEYKCKVSNKALPAPIEKTISKAKGQPREPQVYTLPPSRCELTKNQVSLSCAVKGFYPSDIAVEWESNGQPENNYKTTPPVLDSDGSFFLVSKLTVDKSRWQQGNVFSCSVMHEALHNHYTQKSLSLSPDYKDDDDK
chain: EPKSSDKTHTCPPCPAPELLGGPSVFLFPPKPKDTLMISRTPEVTCVVVDVSHEDPEVKFNWYVDGVEVHNAKTKPREEQYNSTYRVVSVLTVLHQDWLNGKEYKCKVSNKALPAPIEKTISKAKGQPREPQVCTLPPSRDELTKNQVSLWCLVKGFYPSDIAVEWESNGQPENNYKTTPPVLDSDGSFFLYSKLTVDKSRWQQGNVFSCSVMHEALHNRYTQKSLSLSP
light: DIVMTQSPLSLPVTPGEPASISCRSSQSLVHSNRNTYLHWYQQKPGQAPRLLIYKVSNRFSGVPDRFSGSGSGTDFTLKISRVEAEDVGVYYCGQGTQVPYTFGQGTKLEIKRTVAAPSVFIFPPSDEQLKSGTASVVCLLNNFYPREAKVQWKVDNALQSGNSQESVTEQDSKDSTYSLSSTLTLSKADYEKHKVYACEVTHQGLSSPVTKSFNRGEC
notes: one-arm antibody
For the molecule B1, the “KD ratio (KD of CE115HA000 / KD of altered form)” value is 0.85.

B2: CE115HA000 H chain altered form F29V (antibody, human IgG1, kappa, L234A L235A, N297A, name in Kabat numbering)
heavy: QVQLVESGGGVVQPGRSLRLSCAASGFTVSNAWMHWVRQAPGKGLEWVAQIKAKSNNYATYYAESVKGRFTISRDDSKNSLYLQMNSLKTEDTAVYYCRYVHYGAYYGVDAWGQGTTVTVSSASTKGPSVFPLAPSSKSTSGGTAALGCLVKDYFPEPVTVSWNSGALTSGVHTFPAVLQSSGLYSLSSVVTVPSSSLGTQTYICNVNHKPSNTKVDKKVEPKSCDKTHTCPPCPAPEAAGGPSVFLFPPKPKDTLMISRTPEVTCVVVDVSHEDPEVKFNWYVDGVEVHNAKTKPREEQYASTYRVVSVLTVLHQDWLNGKEYKCKVSNKALPAPIEKTISKAKGQPREPQVYTLPPSRCELTKNQVSLSCAVKGFYPSDIAVEWESNGQPENNYKTTPPVLDSDGSFFLVSKLTVDKSRWQQGNVFSCSVMHEALHNHYTQKSLSLSPDYKDDDDK
chain: EPKSSDKTHTCPPCPAPELLGGPSVFLFPPKPKDTLMISRTPEVTCVVVDVSHEDPEVKFNWYVDGVEVHNAKTKPREEQYNSTYRVVSVLTVLHQDWLNGKEYKCKVSNKALPAPIEKTISKAKGQPREPQVCTLPPSRDELTKNQVSLWCLVKGFYPSDIAVEWESNGQPENNYKTTPPVLDSDGSFFLYSKLTVDKSRWQQGNVFSCSVMHEALHNRYTQKSLSLSP
light: DIVMTQSPLSLPVTPGEPASISCRSSQSLVHSNRNTYLHWYQQKPGQAPRLLIYKVSNRFSGVPDRFSGSGSGTDFTLKISRVEAEDVGVYYCGQGTQVPYTFGQGTKLEIKRTVAAPSVFIFPPSDEQLKSGTASVVCLLNNFYPREAKVQWKVDNALQSGNSQESVTEQDSKDSTYSLSSTLTLSKADYEKHKVYACEVTHQGLSSPVTKSFNRGEC
notes: one-arm antibody
B2: the “KD ratio (KD of CE115HA000 / KD of altered form)” value was 2.94.
